Laboratory results from patent US10287317B2, “Proprotein convertase subtilisin kexin type 9 (PCSK9) allosteric binding ligands to modulate serum low density lipoprotein (LDL) levels” (SRX Cardio, LLC, priority 2013, dated 2019).
*1 amine or outer side, *2 acyl side, *3 side chain or, on linkers, in order; H or OH if unused. Where no end group is shown, it is not given here. [ ]: non-standard residue; d: D form. Asp(NHCH2Ph) = Asp side-chain benzylamide, O=C(C[C@H](N[*:1])C(=O)[*:2])NCc1ccccc1; Cys(CH2-Ph) = S-benzyl-Cys, O=C([C@H](CSCc1ccccc1)N[*:1])[*:2]; Phe(3-CH2NH2) = O=C([C@H](Cc1cccc(CN[*:3])c1)N[*:1])[*:2]; d(pS) = N[C@H](COP(=O)(O)O)C(=O)O; pS = N[C@@H](COP(=O)(O)O)C(=O)O; Trp(3-Me) = 3-methyltryptophan; βAla = NCCC(=O)O

Assays:
Type in all cases: cell-based
[1] = target: PCSK9-D374Y protein (Homo sapiens, UniProt Q8NBP7, D374Y); assay: Cellular diI-LDL uptake in HuH7 cells with PCSK9-D374Y
Sequence of PCSK9-D374Y protein (Q8NBP7 153-692 D374Y): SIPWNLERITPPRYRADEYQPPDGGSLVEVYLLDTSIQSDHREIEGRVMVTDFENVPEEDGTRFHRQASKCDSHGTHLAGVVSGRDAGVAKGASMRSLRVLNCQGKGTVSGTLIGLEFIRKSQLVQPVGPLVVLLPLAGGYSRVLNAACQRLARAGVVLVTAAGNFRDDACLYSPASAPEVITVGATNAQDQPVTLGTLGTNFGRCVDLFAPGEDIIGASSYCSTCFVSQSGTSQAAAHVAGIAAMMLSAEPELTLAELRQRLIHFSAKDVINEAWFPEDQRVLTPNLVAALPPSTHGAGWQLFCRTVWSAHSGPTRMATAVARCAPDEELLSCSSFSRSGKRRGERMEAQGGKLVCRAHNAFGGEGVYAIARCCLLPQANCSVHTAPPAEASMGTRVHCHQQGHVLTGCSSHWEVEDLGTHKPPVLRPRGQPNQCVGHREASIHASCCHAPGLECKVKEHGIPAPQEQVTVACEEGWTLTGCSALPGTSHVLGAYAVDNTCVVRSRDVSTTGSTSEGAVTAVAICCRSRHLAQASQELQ
Method: HuH7 cells were incubated in a 96-well plate for a total of 20 h in the absence (Cnt) or presence of 0.5 μg/ml PCSK9-D374Y protein alone (DY) or mixed with 100 uM of various SRX peptides. After 16 h, dil-LDL (5 ug/ml) was added to the incubation mixtures. After 4 h, fluorescence was measured (Ex: 520 nm/Em: 575 nm; cutoff: 550 nm). Dil-LDL uptake is calculated as RFU corrected for the number of cells.
HuH7 cells were incubated in a 96-well plate for a total of 20 h in the absence (Cnt) or presence of 0.5 μg/ml PCSK9 GOF-D374Y protein alone (DY) or mixed with increasing concentrations of various SRX peptides. After 16 h, dil-LDL (5 ug/ml) was added to the incubation mixtures. After 4 h, fluorescence was measured (Ex: 520 nm/Em: 575 nm; cutoff: 550 nm). Dil-LDL uptake is calculated as RFU corrected for the number of cells.
(§1) LDL internalization was measured by uptake of a fluorescently tagged LDL molecule (diI-LDL) in the absence of exogenous PCSK9 (Cnt), in the presence of exogenous PCSK9 (normal PCSK9=WT, D374Y mutant PCSK9=DY), or in the presence of PCSK9 and a tested peptide (indicated as SRX##, or SRX if a single peptide results is shown in a graph).
(§2) Cells, such as HepG2, HuH7, FL83B or a cell line transfected with a short-hairpin PCSK9 knockdown sequence such as HepG2/shPCSK9, HuH7/shPCSK9, FL83B/shPCSK9, were seeded at 2×10^4 cells/well in a 96-well plate and cultured at 37 degC in RPMI+10% FBS. After approximately 24 hours, the cell media was aspirated off and replaced with RPMI+3-5 mg/mL LPDS (Lipoprotein Deficient Serum, Millipore) media for further experimentation. Benjannet et al., “Effects of the prosegment and pH on the activity of PCSK9: evidence for additional processing events” J Biol Chem. 285(52): 40965-40978 (2010).
(§3) Peptide activity was assessed by culturing cells with: i) no SRX peptide/PCSK9 protein complex (control, Cnt); ii) PCSK9 protein; and iii) SRX peptide/PCSK9 complex. Various permutations of these experimental conditions were also used, including: i) the addition of wild type PCSK9 (WT); ii) a mutant PCSK9 (e.g., D374Y mutant PCSK9, DY); iii) various SRX peptides and/or PCSK9 at the same concentration and/or combinations; iv) various SRX peptides and/or PCSK9 at different concentrations and/or combinations; v) the use of different cells, as mentioned above, with or without a transfected short-hairpin sequence; vi) a pre-incubation of the PCSK9 and SRX peptide (e.g., 1, hour, 2 hours, 3 hours, 4 hours etc.); vii) various temperatures including, but not limited to, body temperature (e.g., 37° C.), supraphysiologic temperature (e.g., 39° C.); and viii) with/without agitation (e.g., shaker or gentle periodic vortexing).
(§4) Cells were cultured using one of the combinations of conditions described in the preceding paragraph for 16 hours. After 16 hours, a quantity of diI-LDL (Low density lipoprotein coupled with 1,1′-dioctadecyl-3,3,3′,3′-tetramethylindocarbocyanine perchlorate) needed to bring the media concentration to 5 ug/mL of diI-LDL was added to the culture well and cells continued to be cultured under these new conditions for 4 additional hours. At the end of the 4-hour incubation period (20 total hours of cell culture), the cellular uptake was halted with the addition of 4% formaldehyde in 10 uM Hoechst 33342 in a solvent such as deionized autoclaved water or PBS, and specimens were incubated at 20° C. for 20 minutes. Cell specimens were rinsed twice with PBS and then fluorescence measured with excitation at 360 nm and emission detected at 460 nm to measure DNA content. Cell specimens were then be incubated with a 0.1% SDS in a 0.1 N NaOH solution while being shaken for 10 minutes. Fluorescence of the diI-LDL in the specimens were quantified using excitation at 530 nm and resulting emission at 580 nm.
Fluorescence measurements of diI-LDLR were normalized to estimated cell numbers, determined from the Hoechst fluorescence. […]

[2] = target: T1, PCSK9-WT protein (Homo sapiens, UniProt Q8NBP7); assay: Cellular diI-LDL uptake in HuH7 cells with PCSK9-WT; settings: HuH7, 1.0 μg/ml PCSK9-WT, 100 uM peptide (FIG. 2)
T1 construct: V5
T1 sequence (Q8NBP7 153-692): as the sequence (Q8NBP7 153-692 D374Y) above, with Y222D counted along it
Method: HuH7 cells were incubated in a 96-well plate for a total of 20 h in the absence (Cnt) or presence of 1.0 μg/ml PCSK9-WT protein alone (WT) or mixed with 100 uM of various SRX peptides. After 16 h, dil-LDL (5 ug/ml) was added to the incubation mixtures. After 4 h, fluorescence was measured (Ex: 520 nm/Em: 575 nm; cutoff: 550 nm). Dil-LDL uptake is calculated as RFU corrected for the number of cells.
as §1, §2, §3, §4
Fluorescence measurements of diI-LDLR were normalized to estimated cell numbers, determined from the Hoechst fluorescence. Data was analyzed for the different experimental conditions and reported as percentage relative fluorescence units (RFU) of the Cnt specimen. Percent inhibition was calculated as the difference in RFU of a peptide exposed specimen to the RFU of PCSK9-no peptide, divided by the RFU difference in PCSK9-no peptide to RFU of Cnt specimen, also expressed as [(SRX:RFU)−(PCSK9-no peptide:RFU)]/[(PCSK9-no peptide:RFU)−(Cnt:RFU)]×100.

[3] = target: T1, PCSK9-WT protein; assay: FACS analysis of cell surface LDLR in HuH7 cells with PCSK9-WT; settings: HuH7 cells, FACS, exogenous WT PCSK9 plus peptide (FIG. 1, 100 μM)
Method: HuH7 cells were incubated for 18 h in the absence (Cnt) or presence of 0.75 μg/ml PCSK9-WT protein alone (WT) or mixed with 100 μM of various SRX peptides. The level of LDLR at the cell surface was measured by FACS using anti human LDLR Ab and a suitable secondary Ab labeled with Alexa 647. Cell surface LDLR is reported relative to Cnt. % inhibition of activity was calculated as [SRX−WT]/[Cnt−WT]×100%.
See, FIG. 1. In that experiment, the LDLR levels of a hepatocyte culture model (HuH7 cells) were measured by fluorescence activated cell sorting (FACS) in accordance with Example III. Cell surface LDLR is reported as a percentage of Basal levels of LDLR, indicated by the Cnt_Amm.Bic, Cnt_Ac.Acid, and Cnt bars in the top graph. See, FIG. 1 (top panel). LDLR levels in the presence of exogenous PCSK9 is indicated as WT_Amm.Bic, WT-Ac.Acid, and WT, and Exogenous PCSK9 in combination with a tested peptide is indicated as SRX##. The measured LDLR levels are reported as % versus basal controls (Cnt) of the respective group. […] This was further shown a percent inhibition (% inhibition was calculated as [SRX−WT]/[Cnt−WT]×100%) where positive modulation (increase) of LDLR level is reported as positive % inhibition, and negative modulation (decrease) of LDLR level is reported as negative % inhibition. See, FIG. 1 (bottom panel).
Benjannet et al., “Effects of the prosegment and pH on the activity of PCSK9: evidence for additional processing events” J Biol Chem. 285(52): 40965-40978 (2010). The cells were then washed 3× with solution A (calcium/magnesium-free Dulbecco's PBS (Invitrogen) containing 0.5% bovine serum albumin (Sigma) and 1 g/liter glucose)). The cells were then incubated for 10 min at room temperature with 1× Versene solution (Invitrogen) followed by the addition of 5 ml of solution A. The cells were then incubated for 40 min in solution A containing a human LDLR mAb-C7 (1:100; Santa Cruz Biotechnology). Following washes, the cells were then incubated for 20 min in solution A containing a secondary antibody (Alexa Fluor 647 donkey anti-mouse antibody; 1:250; Molecular Probes).
Following suspension in PBS containing 0.2% of propidium iodide, the cells were analyzed by FACS for both propidium iodide (dead cells) and LDLR in live cells with Alexa Fluor 647 using the FACS BD LSR (BD Biosciences).

[4] = HuH7, 0.5 μg/ml PCSK9-D374Y, 100 uM peptide (FIG. 3)
[5] = HuH7, 0.5 μg/ml PCSK9 GOF-D374Y, increasing concentrations of peptide (FIG. 4)

Substance | LDL internalization (dil-LDL % uptake vs Cnt) [1, 4] | LDL internalization (dil-LDL % uptake vs Cnt) [1, 5] | LDL internalization (dil-LDL % uptake vs Cnt) [2] | modulation of LDLR cell surface level [3]
LDLFFS [Compound 9] | positively modulated (increased) | positively modulated (increased) | negatively modulated (decreased) | –
Phe(4-Ph)-Ala-Ser(p)-morpholine [Compound 16] | negatively modulated (decreased) | – | negatively modulated (decreased) | negatively modulate (decrease)
Thr-Leu-Asp(NHCH2Ph)-Thr-Trp-Ser-Ser-Ser(p) (TL[Asp(NHCH2Ph)]TWSS[pS]) [Compound 4] | – | – | negatively modulated (decreased) | –
Thr-Leu-Cys(CH2-Ph)-Thr-Trp(3-Me)-Ser-Ser-Ser(p) (TL[Cys(CH2-Ph)]T[Trp(3-Me)]SS[pS]) [Compound 7] | positively modulated (increased) | – | negatively modulated (decreased) | –
Thr-Leu-Cys(CH2-Ph)-Thr-Trp-Ser-Ser-Ser(p) [Compound 3] | positively modulated (increased) | positively modulated (increased) | positively modulated (increased) | positively modulate (increase)
Thr-Leu-Thr-Trp-Ser-Ser-Ser(p) (TLTWSS[pS]) [Compound 15] | negatively modulated (decreased) | – | negatively modulated (decreased) | –
VLELYW [Compound 8] | – | – | negatively modulated (decreased) | –
β-Ala-Phe(3-CH2NH2)-Val-D-Ser(p)-Phe-Trp ([βAla][Phe(3-CH2NH2)]V[d(pS)]FW) [Compound 2] | positively modulated (increased) | positively modulated (increased) | positively modulated (increased) | positively modulate (increase)
